Data: publication PMC8073976, “Towards Targeted Alpha Therapy with Actinium-225: Chelators for Mild Condition Radiolabeling and Targeting PSMA—A Proof of Concept Study” (Cancers, 2021)

Assay type: physicochemical
Settings: pH 6
Source text: Unfortunately, a suitable reversed-phase iTLC system for the ligands mcp-M-PSMA and mcp-D-PSMA was not found so far to determine the radiochemical yields. The resolution of our standard system was not efficient, most likely due to the bigger size of these molecules compared to the basic chelators, different protonation steps and possible conformational structures. […] Additionally, the stability of the ^225Ac-labeled conjugates in acetate buffer was investigated by HPLC analyses over a period of ten days.
Actinium-225 was purchased as a 0.1 M HCl solution from ITM Munich and used without purification. Stem solutions of all ligands were prepared in concentrations of 10^−2 M and diluted to 10^−6 M using 0.2 M ammonium acetate buffer at pH 6. For concentration-dependent labeling experiments, 10 µL of each ligand stem solution was incubated with 100 kBq of actinium-225 (1–5 µL) and the total volume was adjusted to 100 µL with 0.2 M ammonium acetate buffer at pH 6. For stability analyses, 50 µL of the buffer volume were replaced by 50 µL of 0.2 M ascorbic acid or 50 µL of 2,5-dihydroxy benzoic acid, respectively. […]
All samples were incubated for one hour at room temperature and analyzed afterward. […] Radioactivity was measured in Isomed 2100 dose calibrator. Low radioactivity count rates were determined in Isomed 2160 sodium iodide detector. […]

O=C(O)CC[C@H](NC(=O)N[C@H](CCCCNC(=O)[C@@H](Cc1ccc2ccccc2c1)NC(=O)C1CCC(CNC(=O)CCCCn2cc(COc3cc(CN4CCOCCOCCN(Cc5cccc(C(=O)O)n5)CCOCCOCC4)nc(C(=O)O)c3)nn2)CC1)C(=O)O)C(=O)O (mixture of isomers) [mcp-M-PSMA, (3RS,10RS,14S)-1-((1s,4S)-4-((5-(4-(((2-Carboxy-6-((16-((6-carboxypyridin-2-yl)methyl)-1,4,10,13-tetraoxa-7,16-diazacyclooctadecan-7-yl)methyl)pyridin-4-yl)oxy)methyl)-1H-1,2,3-triazol-1-yl)pentanamido)methyl)cyclohexyl)-3-(naphthalen-2-ylmethyl)-1,4,12-trioxo-2,5,11,13-tetraazahexadecane-10,14,16-tricarboxylic acid]
stable in acetate buffer: at least 48 h
